From patent US20220364069A1, “METHOD FOR THE PRODUCTION OF AN ENZYMATIC COMPOSITION COMPRISING A RECOMBINANT ENDOPEPTIDASE” (NEMYSIS LIMITED, priority 2019, published 2022) come the findings set out here.

One data set deals with T1, pepsin (Sus scrofa, UniProt P00791).
T1 construct: purchased Sigma-Aldrich (Milan, Italy)
Nature of the data set: Resistance of E40 to pepsin (suc-Ala-Ala-Pro-Phe-pNA cleavage). Type of data set: biochemical. Particulars: pH 4, 4.5 and 5; protease 1:2 (w/w) versus E40; 110 minutes, 37° C. As for the experimental part:
(§1) The resistance of recombinant E40, obtained by the method of the invention, to the proteolytic activity of gastric (pepsin) and duodenal (trypsin) digestive proteases was further evaluated (FIG. 4), using suc-Ala-Ala-Pro-Phe-pNA as substrate. Aqueous solutions of E40 enzyme, alone or in combination with pepsin and/or trypsin (0.2 mg/ml E40, 0.1 mg/ml Pepsin or Trypsin), were diluted in citrate-phosphate buffer containing suc-Ala-Ala-Pro-Phe-pNA at pH 4, 4.5 and 5 for pepsin, and at pH 6 and 7 for trypsin. Final concentrations in reaction mix were: 200 μM substrate, 1-4 nM E40 for incubations at pH 4 to 5, or 4 nM and 7 nM for incubations at pH 6 or 7, respectively (E40 concentration was adjusted according to optimum pH). The digestive protease was maintained in the ratio 1:2 (w/w) versus E40.
(§2) Reactions (200 μl volume in 96-wells flat bottom ptiter plates) were protracted for 110 minutes at 37° C. Absorbance was monitored every 10 min for determining the enzymatic activity. Pepsin and trypsin without E40 were processed in the same way and tested in the same condition as reference control. Each analysis was carried out in duplicate.

Another data set deals with trypsin. As to the kind of experiment: Resistance of E40 to trypsin (suc-Ala-Ala-Pro-Phe-pNA cleavage). The class given is biochemical. The following applies: pH 6 and 7; protease 1:2 (w/w) versus E40; 110 minutes, 37° C. As to the method:
as §1, §2

The subject of a further data set is gliadin. As to the kind of experiment: Digestion of whole gliadin monitored by RP-HPLC. The following applies: pH 4, 37° C., 30 min digestion. The class given is biochemical, Triticum aestivum. As for the experimental part:
The ability of E40 to hydrolyze harmful peptides in whole gliadin proteins was assessed by HPLC analysis (FIG. 6). Gliadin was extracted from whole flour of Triticum aestivum (Sagittario cultivar) according to Mamone et al^4. Gliadin (1 mg) was dissolved in 1 ml of 0.1 M ammonium acetate pH 4 and incubated with E40 enzymes (enzyme:substrate, 1:20), at 37° C. for different time points (0, 15, 30, 60, 120, 240 minutes). The enzymatic hydrolysis was stopped by boiling samples for 5 minutes. Samples were lyophilized and stored at −40° C. until further chemical analysis.
SDS-PAGE was performed on a Tetra-cell Mini-PROTEAN system (Bio-Rad, Milan, Italy). Digested gliadin samples were dissolved in Laemli buffer (0.125 M Tris-HCl pH 6.8, 5% SDS, 20% glycerol, 0.02% bromophenol blue) and loaded onto precast 12% acrylamide gel (Bio-Rad). Electrophoresis was carried out under non-reducing conditions, omitting β-mercaptoethanol in the Laemli buffer. Protein bands were visualized with silver blue (Coomassie Brilliant Blue G-250) and digitalized using a LABScan scanner (Amersham Bioscience/GE Healthcare, Uppsala, Sweden). RP-HPLC was carried out on a RP-HPLC using an HP 1100 Agilent Technology modular system (Palo Alto, Calif., USA). […] Eluent A was 0.1% TFA (v/v) in Milli-Q water, eluent B was 0.1% TFA (v/v) in acetonitrile. […] The column effluent was monitored at 220 and 280 nm with an UV-Vis detector. […]

The subject of data set [1] is gliadin (QPQLPY sequence). As to the kind of experiment: Gluten content of gliadin digests by Elisa-G12. The class given is biochemical, wheat. As for the experimental part:
Next it has been evaluated whether recombinant E40 enzymatic activity efficiently neutralizes: i) the capacity of gluten proteins to bind G12 antibodies, and ii) the stimulation of a T-cell-mediated immune response, measured by IFN-γ release. To this purpose, gliadin proteins were suspended in 1 ml of 0.1M ammonium acetate and digested with E40 alone, or with E40 co-incubated with the gastrointestinal proteases, pepsin and trypsin/chymotrypsin, at different pHs and time points, as detailed in Table 1.
All enzymes were added in w/w ratio 1:20 (enzyme:protein) and incubated at 37° C., at indicated pH and incubation time. E40/pepsin/chymotrypsin-digested gliadins were deamidated by tTGase (Sigma Aldrich), as previously described^4. Briefly, the enzymatic gliadin digests (500 μg/ml) were incubated with 2 U of guinea pig tTG (T-5398, Sigma, St. Louis, Mo., USA) at 37° C. for 2 hours in PBS with 1 mmol/L CaCl2.
To estimate the effect of E40 digestion on the immunological potential of wheat, gluten content of samples A-L was determined by monoclonal antibodies specific for QPQLPY sequence (Elisa-G12)^10.

“Also recorded” adds a separate entry of the source.

T1 sequence (P00791 60-385): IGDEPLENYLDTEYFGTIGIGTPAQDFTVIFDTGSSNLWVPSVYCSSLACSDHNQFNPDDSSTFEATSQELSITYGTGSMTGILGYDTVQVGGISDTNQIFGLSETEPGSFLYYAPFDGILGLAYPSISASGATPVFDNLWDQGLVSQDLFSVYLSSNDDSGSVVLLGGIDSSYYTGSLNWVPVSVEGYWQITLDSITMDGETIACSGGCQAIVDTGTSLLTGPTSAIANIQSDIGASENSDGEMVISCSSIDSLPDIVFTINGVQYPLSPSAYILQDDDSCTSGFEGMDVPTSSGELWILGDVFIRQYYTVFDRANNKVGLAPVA

B1: E40: Actinoallomurus endopeptidase with glutenase activity, sequence comprising SEQ ID NO: 1; recombinant histidine-tagged form SEQ ID NO: 2 from S. lividans (protein)
chain: AAPSGLSPANLQSAYKLPSSTAGSGQTVAIVDAYDAPTAEADLNVYRSQFGLGACTTANGCFKKVDQNGGTSYPRKDGGWAQEISLDLDMVSAVCPNCKIVLVEAKTNSFANLGTAENTAASLANVISNSYGGSDASDASYGSYYNHPGKAITVSSGDAGYGVEYPASSHYVTAVGGTSLRTASTSRGWSETAWSGAGSGCSAYNTALSGQSGLTGCSRRAVADVSAVADPATGVAVYDSTAYQGQSGWMVFGGTSVAAPIIGGVYGLAANAASIDNNYPYAHTSSLFDVTSGSNGTCTTTKWCTAGTGWDGPTGLGTPNGTGAFGHHHHHH
modifications: Actinoallomurus
Regarding B1, in the data set with pepsin, the “E40 cleaving activity in presence of pepsin” value is recorded as “unaffected; also recorded: slightly enhanced”. The “E40 cleaving activity in presence of trypsin” value with trypsin is recorded as “unaffected”. The “peaks assigned to gliadins after 30 min” value in the data set on gliadin was “markedly reduced”. In addition, the “gluten content (Elisa-G12)” value in data set [1] (sample A: E40 (1 h) (pH 4)) was 1.72 ppm (ng/mL); in data set [1] (sample B: E40 (2 h) (pH 4)) it was 2.26 ppm (ng/mL); in data set [1] (sample C: E40 + Pepsin (1 h) (pH 4)) it was 5.23 ppm (ng/mL); in data set [1] (sample D: E40 + Pepsin (2 h) (pH 4)), 5.42 ppm (ng/mL); in data set [1] (sample E: E40 + Pepsin (2 h) (pH 4), Trypsin + Chymotrypsin (2 h) (pH 6)), 4.09 ppm (ng/mL); in data set [1] (sample F: E40 + Pepsin (2 h) (pH 4), Trypsin + Chymotrypsin (4 h) (pH 6)), 2.68 ppm (ng/mL). The “gluten content (Elisa-G12)” value in data set [1] (sample G: E40 + Pepsin (1 h) (pH 4), Trypsin + Chymotrypsin (2 h) (pH 6)) was 1.68 ppm (ng/mL); in data set [1] (sample H: E40 + Pepsin (1 h) (pH 4), Trypsin + Chymotrypsin (4 h) (pH 6)) it was 2.05 ppm (ng/mL). Moreover, the “gluten content of E40 digested samples” value in data set [1] (samples from A to H) is “below 20 ppm”. Under “purified enzyme preparation, pH range 2 to 8”, the “pH of maximal activity” value came out at 5. Besides, the residual activity (usually what remains of the control signal, in per cent) at pH 3 (purified enzyme preparation, relative to pH 5) is reported as roughly 40%. Further, for the setting “purified sample of Example 4, pH 5, 37° C.”, the “enzyme activity of purified sample” value was 41000 U/mg protein.
